The record followed here is FireProtDB (doi:10.1021/bi00200a042).

Chain of Cytochrome c isoform 1 N58I|C108A, P00044 N58I C108A (P00044 whole entry N58I/C108A, canonical isoform): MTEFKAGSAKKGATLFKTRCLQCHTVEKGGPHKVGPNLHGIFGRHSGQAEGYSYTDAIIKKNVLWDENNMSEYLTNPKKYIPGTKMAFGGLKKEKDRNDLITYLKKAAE
Chain of Cytochrome c isoform 1 R44A|N58I|F88S|C108A, P00044 R44A N58I F88S C108A (P00044 whole entry R44A/N58I/F88S/C108A, canonical isoform): as the sequence (P00044 whole entry N58I/C108A, canonical isoform) above, with R44A, F88S counted along it
Chain of Cytochrome c isoform 1 F88S|C108A, P00044 F88S C108A (P00044 whole entry F88S/C108A, canonical isoform): as the sequence (P00044 whole entry N58I/C108A, canonical isoform) above, with I58N, F88S counted along it
Chain of Cytochrome c isoform 1 R44A|N58I|C108A, P00044 R44A N58I C108A (P00044 whole entry R44A/N58I/C108A, canonical isoform): as the sequence (P00044 whole entry N58I/C108A, canonical isoform) above, with R44A counted along it
Chain of Cytochrome c isoform 1 R44A|C108A, P00044 R44A C108A (P00044 whole entry R44A/C108A, canonical isoform): as the sequence (P00044 whole entry N58I/C108A, canonical isoform) above, with R44A, I58N counted along it
Chain of Cytochrome c isoform 1 C108A, P00044 (P00044 whole entry C108A, canonical isoform): as the sequence (P00044 whole entry N58I/C108A, canonical isoform) above, with I58N counted along it
Chain of Cytochrome c isoform 1 N58I|F88S|C108A, P00044 N58I F88S C108A (P00044 whole entry N58I/F88S/C108A, canonical isoform): as the sequence (P00044 whole entry N58I/C108A, canonical isoform) above, with F88S counted along it

The conditions of the data set: Saccharomyces cerevisiae (strain ATCC 204508 / S288c); pH 7; 25 °C; GdnHCl; Fluorescence; Potassium phosphate 0.1 M; reversible: yes; structure 1YCC.
For Cytochrome c isoform 1 C108A, P00044, the denaturant m value was 3.9 kcal/mol/M, the “denaturant midpoint (higher = more stable)” value (shortened to “denaturant midpoint”) was found to be 1.3 M and the unfolding free energy turned out to be 5 kcal/mol.

For “Cytochrome c isoform 1 F88S|C108A, P00044 F88S C108A”, the denaturant m value amounted to 3.8 kcal/mol/M, the “denaturant midpoint” value amounted to 0.9 M and the unfolding free energy worked out at 3.5 kcal/mol.

Turning to “Cytochrome c isoform 1 R44A|N58I|C108A, P00044 R44A N58I C108A”, the denaturant m value turned out to be 3.8 kcal/mol/M, the “denaturant midpoint” value came out at 2.1 M and the unfolding free energy stood at 8.2 kcal/mol.

In the case of “Cytochrome c isoform 1 R44A|N58I|F88S|C108A, P00044 R44A N58I F88S C108A”, the denaturant m value was 3.6 kcal/mol/M, the “denaturant midpoint” value was 1.7 M and the unfolding free energy stood at 6.2 kcal/mol.

As for “Cytochrome c isoform 1 N58I|F88S|C108A, P00044 N58I F88S C108A”, the denaturant m value is 3.2 kcal/mol/M, the “denaturant midpoint” value worked out at 1.7 M and the unfolding free energy amounted to 5.5 kcal/mol.

For “Cytochrome c isoform 1 N58I|C108A, P00044 N58I C108A”, the denaturant m value was 4.2 kcal/mol/M, the “denaturant midpoint” value is 2.1 M and the unfolding free energy is 9 kcal/mol.

For “Cytochrome c isoform 1 R44A|C108A, P00044 R44A C108A”, the denaturant m value stood at 3 kcal/mol/M, the “denaturant midpoint” value amounted to 1.4 M and the unfolding free energy was 3.8 kcal/mol.
